The nature of the assay: Coupled dehydrogenase assays for transaminase activity of the Pseudomonas sp. proteins and ancestral reconstructions. In kind it is biochemical. The following applies: for pH optimum: UV absorbance at 340 nm, pH range 7.5-10; for pH optimum / activity with ω-amino acids including long chain C11 and C12: 28° C.; for activity with ω-amino acids including long chain C11 and C12: 340 nm, pH 7.5-10. The protocol:
Activity for each protein was assessed using coupled dehydrogenase assays as described previously. A typical assay comprised:
Substrate (6.25 mM final concentration in potassium phosphate buffer)
Co-substrate (pyruvate (0.5 mM final concentration) or α-KG (0.25 mM final concentration)
NAD (1.25 mM final concentration)
Dehydrogenase (1 μL from ADH-≧35 units/mL stock solution or GDH≧35 units/mg protein stock)
Transaminase (final concentration dependent)
Potassium phosphate buffer (100 mM)
UV absorbance at 340 nm was recorded at 28° C. over a pH range of 7.5-10 with a range of substrates.
Proteins encoded by p7N6, p7N15, p7N16, p7N17, p7N43 and p7N48 were expressed using an E. coli recombinant expression platform and subsequently purified.
Each of the proteins were assayed for substrate specificity. Substrates identified by assaying for each of the proteins are summarized below.

B1: p7N6: de novo peptide sequence based on p7, produced by ancestral reconstruction; SEQ ID NO:7 (protein)
chain: MTDFDQLFEQDRAHFMHPSTHAHDHASGALPGRIITGASGIRIRDHEGRELIDAFAGLYCVNIGYGRTEVADAIYKQAKELAYYHTYVGHSTEAIIELSSRIIRDWAPAGMKKVYYGLSGSDANETQIKLVRYYNNVLGRPQKKKIISRQRGYHGSGIMTGSLTGLPSFHQHFDLPVEGIKHTVCPHWYKAPAGMDEAAFVRYCADELEKLILAEGPDTVAAFIGEPVMGTGGIIVPPKGYWEAIQAVLNKYDVLLIADEVVCAFGRLGSKMGSQRYGMRPDLITTAKGLTSAYAPLSAVIVGEKVWDVIEKASQKEGAMGHGWTYSGHPICAAAALANLDILERENLTANAADVGAYLNQRLRETFEGHPLVGEVRGDGMLAALEFMADREARTPFDPALKVGPKVSAACLEDGMIARAMPHGDILGFAPPLVLTRAEADEIVGIAKAAVDEVAGEVL
modifications: Molecule produced by ancestral reconstruction
For the molecule B1, the “activity of ancestral reconstruction proteins in the coupled assays” value (E. coli expressed, purified proteins) is “activity in accordance with p7”.

B2: p4: pyruvate: ω-amino acid transaminase from Pseudomonas sp., amino acid sequence SEQ ID NO:6 (protein, listed as Pseudomonas sp.)
chain: MTKQTSAQTQHWQALSREHHLAPFTDYKQLNEKGARIITKAEGVYLWDSEGNKILDGMAGLWCMNVGYGRKELAEVAYKQMLELPYYNLFFQTAHPPALELAKAIADIAPEGMNHVFFTGSGSESNDTVLRMVRHYWSIKGKPQKKVVIGRWNGYHGSTVAGVSLGGMKALHSQGDLPIPGIVHIAQPYWYGEGGDMSAEEFGVWAAEQLEKKILEVGEENVAAFIAEPIQGAGGVIVPPDTYWPKIREILAKYEILFIADEVICGFGRTGEWFGSQYYGNAPDLMPIAKGLTSGYIPMGGVIVRDEIVDTLNEGGEFYHGFTYSGHPVAAAVALENIRILREEKIVETVKAETAPYLQKRWQELADHPLVGEARGVGMVGALELVKNKKTRERFENGVGMLCREHCFRNGLIMRAVGDTMIISPPLVITKPEIDELITLARKCLDQTAAVALS
As for B2, the pH optimum is listed as about 10. For the same molecule, the “activity with ω-amino acids including long chain C11 and C12” value (coupled dehydrogenase assay) is “shown the desired activity with ω-amino acids, notably including long chain amino acids C11 and C12”.

B3: p7: pyruvate: ω-amino acid transaminase from Pseudomonas sp., amino acid sequence SEQ ID NO:2 (protein, listed as Pseudomonas sp.)
chain: MGSSHHHHHHSSGLVPRGSHMTDYAKLFEQDRAHFMHPSTHAHDHASGALPGRIITGASGVRIRDHQGRELLDAFAGLYCVNIGYGRLEVADAIHEQAKQLAYYHTYVGHASEAIIELSARIIRDWAPAGMKKVYYGLSGSDANETQVKLVRYYNNVLGRPQKKKIISRQRGYHGSGIVTGSLTGLASFHQHFDLPVEGVKHTLCPHFYKAPAGMDEAAFVRHCAQELENLILAEGPDTVAAFIGEPVMGTGGIIVPPKGYWEAIQAVLAKYDVLLIADEVVCAFGRLGDKMGSQRHAMRPDLITTAKGLTSAYAPLSAVIVGEKVWDVIDSASTREGAMGHGWTYSGHPICAAAALANLDILERENITANAADVGGYLNQQLRQAFEGHPLVGEVRGDGMLAALEFMADREARTPFDAALKVGPKVSAACLERGMIARAMPHGDILGFAPPLVLSRAEADEVVGIAKAAVDAVAAEVL
In turn, B3 registered a pH optimum of about 10. Moreover, for the setting “coupled dehydrogenase assay”, the smallest substrate accepted result is “C4 (γ-aminobutyrate; GABA)”; the “activity with ω-amino acids including long chain C11 and C12” value is “shown the desired activity with ω-amino acids, notably including long chain amino acids C11 and C12”.

Source of the values: patent US20160208226A1, “Transaminase Biocatalysts” (COMMONWEALTH SCIENTIFIC AND INDUSTRIAL RESEARCH ORGANISATION, priority 2013, published 2016).
